System: CC(=O)C=O
Assay: purified protein

## E. coli YajL (Escherichia coli K-12)
  Km: 95 ± 18 µM

— PMC9426524
